From publication PMC4919504

Key:
Assay in all cases: anti-GFP IP, LC-MS/MS spectral counts
Numa1 = Numa1 (UniProt Q14980); details: sites S1448
Beta-pix = Beta-pix (UniProt Q14155); details: reference: S1448A GFP-Scribble; sites S1448
Git1 = Git1 (UniProt Q9Y2X7); details: reference: S1448A GFP-Scribble; sites S1448
Vimentin = Vimentin (UniProt P08670); details: reference: S1448A GFP-Scribble; sites S1448
[1] = reference: wild type GFP-Scribble

Row | Substance | other: spectral counts (Numa1; [1]) | other: spectral counts (Beta-pix) | other: spectral counts (Git1) | other: spectral counts (Numa1; reference: S1448A GFP-Scribble) | other: spectral counts (Vimentin)
1 | Scribble (from UniProt Q14160) S1448A GFP-Scribble | weaker; reference 34 | – | – | – | –
2 | Scribble (from UniProt Q14160) S1448D GFP-Scribble | same; reference 34 | same; reference 49 | same; reference 72 | stronger; reference 8 | same; reference 277
